{"source": "paper doi:10.1101/2025.10.08.681084", "molecular_target": "recombinant Nrf2-6×his (human) (UniProt Q16236)", "sequence (Q16236 whole entry, the tested form may be a part)": "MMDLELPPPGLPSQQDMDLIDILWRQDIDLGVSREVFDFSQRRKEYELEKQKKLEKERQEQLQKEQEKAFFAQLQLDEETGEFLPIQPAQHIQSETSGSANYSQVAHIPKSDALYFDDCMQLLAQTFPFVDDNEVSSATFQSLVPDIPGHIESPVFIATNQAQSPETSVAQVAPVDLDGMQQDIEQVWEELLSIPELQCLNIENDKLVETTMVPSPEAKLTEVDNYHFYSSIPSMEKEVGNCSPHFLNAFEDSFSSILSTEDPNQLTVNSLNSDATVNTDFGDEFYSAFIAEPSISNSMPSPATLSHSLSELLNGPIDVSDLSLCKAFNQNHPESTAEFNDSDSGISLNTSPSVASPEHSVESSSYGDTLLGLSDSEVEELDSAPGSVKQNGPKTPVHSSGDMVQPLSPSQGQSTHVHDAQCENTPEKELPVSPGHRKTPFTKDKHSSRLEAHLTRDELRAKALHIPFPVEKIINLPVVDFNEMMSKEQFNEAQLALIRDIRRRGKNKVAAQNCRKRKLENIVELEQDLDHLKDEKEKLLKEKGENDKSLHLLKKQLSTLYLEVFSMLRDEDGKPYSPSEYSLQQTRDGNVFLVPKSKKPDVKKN", "assay": "pull-down", "data": [{"substance": "recombinant K13 (TrK13-WT) (domain or fragment)", "values": [{"measurement": "percent reduction of binding of heme-bound TrK13-WT against heme-free TrK13-WT", "value": 26, "unit": "%"}]}]}
